# Laboratory results published in patent US20110182943A1, “METHODS OF IMMUNE OR HEMATOLOGICAL ENHANCEMENT, INHIBITING TUMOUR FORMATION OR GROWTH, AND TREATING OR PREVENTING CANCER, CANCER SYMPTOMS, OR THE SYMPTOMS OF CANCER TREATMENTS” (FONTERRA CO-OPERATIVE GROUP LIMITED, priority 2007, published 2011).
# B1: Lf+: Iron-saturated bovine lactoferrin extract (100% saturated) prepared from natural bLf (protein, UniProt P24627 20-708, looked up)
# Lactotransferrin: APRKNVRWCTISQPEWFKCRRWQWRMKKLGAPSITCVRRAFALECIRAIAEKKADAVTLDGGMVFEAGRDPYKLRPVAAEIYGTKESPQTHYYAVAVVKKGSNFQLDQLQGRKSCHTGLGRSAGWIIPMGILRPYLSWTESLEPLQGAVAKFFSASCVPCIDRQAYPNLCQLCKGEGENQCACSSREPYFGYSGAFKCLQDGAGDVAFVKETTVFENLPEKADRDQYELLCLNNSRAPVDAFKECHLAQVPSHAVVARSVDGKEDLIWKLLSKAQEKFGKNKSRSFQLFGSPPGQRDLLFKDSALGFLRIPSKVDSALYLGSRYLTTLKNLRETAEEVKARYTRVVWCAVGPEEQKKCQQWSQQSGQNVTCATASTTDDCIVLVLKGEADALNLDGGYIYTAGKCGLVPVLAENRKSSKHSSLDCVLRPTEGYLAVAVVKKANEGLTWNSLKDKKSCHTAVDRTAGWNIPMGLIVNQTGSCAFDEFFSQSCAPGADPKSRLCALCAGDDQGLDKCVPNSKEKYYGYTGAFRCLAEDVGDVAFVKNDTVWENTNGESTADWAKNLNREDFRLLCLDGTRKPVTEAQSCHLAVAPNHAVVSRSDRAAHVKQVLLHQQALFGKNGKNCPDKFCLFKSETKNLLFNDNTECLAKLGGRPTYEEYLGTEYVTAIANLKKCSTSPLLEACAFLTR
# modifications: iron-saturated
# notes: Iron-saturated bovine lactoferrin extract (100% saturated) prepared from natural bLf
# How the values were obtained:
# EL-4 target cells = experiment: Anti-tumour cytolytic activity of splenocytes from diet-fed mice; type: in vivo; details: day 56
# Method: Splenocytes were harvested following tumour cell injection on days specified. They were incubated at 37° C. with EL-4 target cells in graded E:T ratios in 96-well roundbottom plates. After a 4-hour incubation, 50 μl of supernatant was collected, and lysis was measured using the Cyto Tox 96 Assay Kit (Promega, Madison, Wis., USA). Background controls for non-specific target and effector cell lysis were included. After background subtraction, percentage of cell lysis was calculated using the formula: 100×(experimental spontaneous effector-spontaneous target/maximum target-spontaneous target).
# Splenocytes were harvested from the mice described in Example 4 at day 56 and tested for their cytolytic activity against EL-4 target cells. […] The anti-tumour cytolytic activity was further increased by 86% (P<0.001) for mice fed the combination of Lf+ and milk fat compared to controls.
# EL-4 tumours [1] = experiment: Tumour apoptosis (TUNEL / annexin-V-fluos) in EL-4 tumour sections; type: in vivo, mice; details: day 56
# Method: Tumours were excised and immediately frozen in dry ice, and stored at −70° C. for later in situ detection of apoptotic cells in tumours. Frozen serial sections of 6-μm thickness were fixed with paraformaldehyde solution (4% in PBS, pH 7.4), and permeabilized with a solution containing 0.1% Triton X-100 and 0.1% sodium citrate. They were incubated with 20 μl TUNEL reagent (In Situ apoptosis detection kit from Boehringer Mannheim, Germany) for 60 min at 37° C., and examined by fluorescence microscopy. Adjacent sections were counter-stained with haematoxylin to count the total number of cells, or the number of apoptotic cells in ten randomly selected fields (magnification of ×40). The apototic index (AI) was calculated as the number of apoptotic cells×100/total number of nucleated cells. For detection of apoptotic cells in vitro, the numbers of apoptotic and necrotic tumour cells were measured by staining with annexin-V-fluos, TUNEL, and trypan blue. For measurement of gut apoptosis, jejunal sections were stained by the TUNEL method using a DeadEnd™ Fluorometric TUNEL System (Promega, Madison, Wis., USA). Apoptotic cells in 10 randomly selected cypts were counted, and the data expressed as apoptotic bodies per crypt. […]
# EL-4 tumours [2] = experiment: Tumour vascularity and blood flow (CD31, CD105, DiO7) in EL-4 tumours; type: in vivo, mice; details: day 56
# Method: To determine tumour vascularity, 10-μm frozen tumour sections were fixed with acetone, rinsed with PBS, blocked with 2% BSA for 2 hr, and incubated overnight with the anti-CD31 antibody MEC13.3, or an anti-CD105 mAb. They were subsequently incubated for 30 min with secondary antibodies using the VECTASTAIN Universal Quick kit (Vector Laboratories, Burlingame, Calif., USA); and developed with Sigma FAST DAB (3,3′-diaminobenzidine tetrahydrochloride) and CoCl2 enhancer tablets (Sigma), and counterstained with hematoxylin. Stained blood vessels were counted in five or six blindly chosen random fields (0.155 mm^2) at ×40 magnification, and the mean of the highest three counts was calculated. To visualize blood vessels open to flow, DiO7 (Molecular Probes, Eugene, Oreg.) was injected into the tail vein at a concentration of 1.0 mg/Kg one minute prior to collecting tissues, as described previously (Ding et al., 2001). The concentric circles method was also used to assess vascularity.
# The effects of Lf+ and milk fat on tumour blood flow and vascularity were analyzed by staining of tumour sections prepared as described in Example 5 with anti-CD31 and anti-CD105 mAbs, and by perfusion of DiO7, and respectively. […] Stained blood vessels were counted from six mice in six blindly chosen random fields.
# EL-4 tumour cells = experiment: EL-4 lymphoma tumour growth in mice fed experimental diets; type: in vivo, C57BL/6 mice
# From the text: Mice were challenged subcutaneously with 2×10^5 EL-4 tumour cells two weeks after being placed on the diets. Tumour size as measured by two perpendicular diameters (in centimetres) was monitored until day 91, or until tumours reached 1 cm in diameter. Each point represents the mean tumour size with 95% confidence intervals for either 6 mice, or the number of mice indicated.
# Groups of six mice were fed a control AIN-93G diet, diets containing either 28 g Lf+ or 120 g of milk fat (AMF) per 2.4 Kg of diet, or a diet containing a combination of both Lf and milk fat. Day 0 refers to the day the mice were placed on their diets. After 2 weeks on the diets, 2×10^5 EL-4 cells were injected into the flanks of mice. Tumour size as measured by two perpendicular diameters (in centimetres) was monitored until day 56. Each point represents the mean tumour size with 95% confidence intervals for either 6 mice, or the number of mice indicated.
# Mice were challenged subcutaneously with EL-4 tumour cells two weeks after being placed on the diets. Tumour size was again measured by two perpendicular diameters (in centimetres).
molecule,measurement,setting,value
B1,increase in anti-tumour cytolytic activity of splenocytes compared with control diet,EL-4 target cells,66%
same,increase in tumour apoptosis compared to control diet,EL-4 tumours [1],68%
same,reduction in number of CD31+ vessels in tumours compared to control diet,EL-4 tumours [2],84%
same,reduction in tumour blood flow compared to control diet,EL-4 tumours [2],84%
same,mice that completely rejected the tumour challenge,"EL-4 tumour cells; 28 g Lf+ and/or 120 g milk fat per 2.4 Kg of diet, groups of six mice, until day 56",One of 6
same,mice in which appearance of tumours was delayed by one week,"EL-4 tumour cells; 28 g Lf+ or 120 g milk fat per 2.4 Kg of diet, groups of six mice",5 of 6
same,effect on tumour growth / tumorigenesis in individual mice,"EL-4 tumour cells; groups of five mice, per 2.4 Kg of diet: 28 g Lf+, 120 g Phospholac 600, 1.2 g sphingomyelin","growth of two tumours being delayed by two weeks, and one by at least one week"
